Experimental findings from patent US20230381350A1 (PRECIRIX N V, published 2023) are described below.

The target in experiment [1] is T1, human FAP expressed on cells (human, UniProt Q12884 1-760).
T1 construct: also called human FAP cell surface protein; human FAP receptor
T1 sequence: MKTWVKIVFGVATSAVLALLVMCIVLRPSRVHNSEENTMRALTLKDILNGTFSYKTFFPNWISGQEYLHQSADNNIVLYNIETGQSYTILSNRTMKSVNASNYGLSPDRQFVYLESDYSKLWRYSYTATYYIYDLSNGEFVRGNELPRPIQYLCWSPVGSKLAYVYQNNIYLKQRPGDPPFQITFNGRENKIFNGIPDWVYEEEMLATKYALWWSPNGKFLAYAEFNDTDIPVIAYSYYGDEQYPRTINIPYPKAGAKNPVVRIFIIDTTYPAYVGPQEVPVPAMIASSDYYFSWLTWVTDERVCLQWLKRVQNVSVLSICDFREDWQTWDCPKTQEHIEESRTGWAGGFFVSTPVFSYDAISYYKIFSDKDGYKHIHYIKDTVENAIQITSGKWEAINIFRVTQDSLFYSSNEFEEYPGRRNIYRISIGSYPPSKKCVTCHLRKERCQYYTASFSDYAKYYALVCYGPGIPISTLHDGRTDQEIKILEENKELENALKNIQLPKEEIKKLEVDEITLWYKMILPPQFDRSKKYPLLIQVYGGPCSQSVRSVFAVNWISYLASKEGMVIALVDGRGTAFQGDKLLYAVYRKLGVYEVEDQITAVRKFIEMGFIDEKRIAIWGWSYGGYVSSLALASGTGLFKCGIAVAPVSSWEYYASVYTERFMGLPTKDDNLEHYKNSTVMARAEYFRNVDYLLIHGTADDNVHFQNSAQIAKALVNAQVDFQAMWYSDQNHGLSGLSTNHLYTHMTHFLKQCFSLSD
In words: flow cytometry on human FAP-expressing GM05389 cells, VHH-containing bacterial extract, anti-HA and PE-conjugated secondary detection, Δmfi against cells without VHH. On the procedure: The cell binding was tested by flow cytometry experiments. Per test condition 1×10⁵ to 2×10⁵ cells, washed in PBS, 0.5% BSA, were pelleted in the well of a 96-well U-bottom plate. The cell pellets were resuspended and incubated with the VHH-containing bacterial freeze-thaw extracts (diluted in PBS, 0.5% BSA). Binding of HA-His₆-tagged VHHs was detected by using mouse anti-HA.11 epitope tag (clone 16B12, Biolegend) as the primary detection antibody and PE-conjugated rat anti-mouse IgG1 (clone A85-1, BD Pharmingen) as the secondary detection antibody, with washing with PBS, 0.5% BSA in between, and finally resuspended in PBS, 0.5% BSA.
Flow cytometry was performed on a FACS Canto II (BD Biosciences). Data were analyzed using FlowJo software. Based on the forward scatter-side scatter plot a single cell gate was drawn. The median fluorescence intensity was determined on a histogram for the phycoerythrin signal of the single cells. The difference in median fluorescence intensity (A mfi) was calculated relative to a test condition without incubation of VHHs (cells+primary Ab+secondary Ab), and are shown in FIG. 3.

Experiment [2] deals with T2, murine FAP recombinant protein (murine, UniProt P97321 26-761).
T2 construct: The protein was biotinylated for bio-layer interferometry; also called extracellular domain of murine FAP with N-terminal His6-tag
T2 sequence: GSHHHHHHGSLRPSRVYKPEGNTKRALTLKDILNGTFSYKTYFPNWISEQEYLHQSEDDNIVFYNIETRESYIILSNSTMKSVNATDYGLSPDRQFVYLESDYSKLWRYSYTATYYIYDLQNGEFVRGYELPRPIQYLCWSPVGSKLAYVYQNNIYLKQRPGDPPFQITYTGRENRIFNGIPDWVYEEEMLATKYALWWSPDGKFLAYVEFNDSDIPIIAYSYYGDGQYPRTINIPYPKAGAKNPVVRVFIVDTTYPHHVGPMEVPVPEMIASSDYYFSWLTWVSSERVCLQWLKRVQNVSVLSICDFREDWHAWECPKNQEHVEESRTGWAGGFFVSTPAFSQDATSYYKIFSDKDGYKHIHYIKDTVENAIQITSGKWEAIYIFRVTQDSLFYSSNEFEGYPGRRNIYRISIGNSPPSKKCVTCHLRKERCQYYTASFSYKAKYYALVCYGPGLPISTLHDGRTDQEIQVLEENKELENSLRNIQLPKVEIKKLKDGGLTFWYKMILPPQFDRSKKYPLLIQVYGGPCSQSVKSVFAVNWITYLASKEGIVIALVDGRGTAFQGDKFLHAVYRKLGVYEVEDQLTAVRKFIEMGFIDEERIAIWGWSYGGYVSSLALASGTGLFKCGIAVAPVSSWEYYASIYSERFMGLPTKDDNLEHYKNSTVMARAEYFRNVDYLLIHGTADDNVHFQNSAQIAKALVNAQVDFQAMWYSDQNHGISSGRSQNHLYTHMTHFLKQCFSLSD
Briefly: ELISA, coated murine FAP recombinant protein, HA-His6-tagged VHH extract, anti-HA detection. On the procedure:
(§1) The day before measurement, 0.1 μg recombinant protein at a concentration of 1 μg/mL in 100 mM NaHCO₃, pH 8.2 was coated in a 96-well ELISA plate (Nunc MaxiSorp). Per VHH clone also a blank coated well was foreseen (only buffer). The wells were overcoated with protein-free T20 (PBS) blocking buffer (Pierce). After washing with PBS, pH7.4, 0.05% Tween, VHH-containing bacterial freeze-thaw extract was added to every well. Binding of HA-His₆-tagged VHHs was detected by using mouse anti-HA.11 epitope tag (clone 16B12, Biolegend) as the primary Ab and goat anti-mouse IgG (whole molecule) alkaline phosphatase conjugate (Sigma-Aldrich) as the secondary Ab, with thorough washing with PBS, pH 7.4, 0.05% Tween in between. Signals were developed using phosphatase substrate (Sigma-Aldrich) in AP blot buffer (100 mM NaCl, 50 mM MgCl₂, 100 mM Tris, pH 9.5). The absorbance was determined at 405 nm using an absorbance microplate reader (Molecular Devices). Per clone the ratio was determined between the absorbance in the antigen-coated well versus the well without antigen.
(An ELISA detects its analyte on a solid surface through an enzyme-linked reagent.)

The target in experiment [3] is T3, human FAP recombinant protein (human, UniProt Q12884 26-760).
T3 construct: The protein was biotinylated with sulfo-NHS-SS-biotin for bio-layer interferometry; also called extracellular domain of human FAP with N-terminal His6-tag
T3 sequence: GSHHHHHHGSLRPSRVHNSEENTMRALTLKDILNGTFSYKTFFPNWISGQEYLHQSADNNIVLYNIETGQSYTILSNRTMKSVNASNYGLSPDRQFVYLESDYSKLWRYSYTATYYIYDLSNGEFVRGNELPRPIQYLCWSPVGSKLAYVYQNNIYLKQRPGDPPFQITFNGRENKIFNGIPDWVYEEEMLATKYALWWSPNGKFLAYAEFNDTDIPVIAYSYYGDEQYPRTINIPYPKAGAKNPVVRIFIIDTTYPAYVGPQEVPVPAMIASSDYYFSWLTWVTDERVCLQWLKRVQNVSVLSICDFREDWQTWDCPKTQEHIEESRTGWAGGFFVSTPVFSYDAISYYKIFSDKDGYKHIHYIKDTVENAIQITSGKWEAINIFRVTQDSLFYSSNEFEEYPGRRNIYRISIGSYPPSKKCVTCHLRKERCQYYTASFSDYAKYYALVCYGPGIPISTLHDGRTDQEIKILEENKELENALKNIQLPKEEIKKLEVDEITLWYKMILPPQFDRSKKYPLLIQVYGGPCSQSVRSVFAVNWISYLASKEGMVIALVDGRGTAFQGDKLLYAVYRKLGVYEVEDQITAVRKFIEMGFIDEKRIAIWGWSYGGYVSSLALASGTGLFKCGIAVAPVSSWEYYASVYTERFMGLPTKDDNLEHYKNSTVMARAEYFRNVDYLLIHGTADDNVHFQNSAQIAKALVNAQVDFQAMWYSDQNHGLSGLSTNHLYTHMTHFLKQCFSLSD
Briefly: ELISA on coated recombinant protein, VHH-containing bacterial extract, anti-HA detection, signal-to-background ratio. On the procedure: as §1

The target in experiment [4] is T1, human FAP expressed on cells. Briefly: saturation binding of 111In-DOTA-labelled untagged VHH B1 on human FAP-expressing GM05389 cells. How it is done:
Secondly, untagged human/murine FAP-crossreactive VHH B1 was radiolabeled with ¹¹¹In, after which its in vitro and in vivo diagnostic potential was evaluated. The binding potential of the resulting radio-conjugate was assessed to confirm that this was not affected by the conjugation of ¹¹¹In-DOTA to the amino acid sequence of the VHH. To this, human FAP-expressing GM05389 cells were incubated with serial dilutions with concentrations ranging from 0 to 33 nM of the ¹¹¹In-labelled VHHs. A 100-fold excess of the corresponding unlabeled VHH was added in parallel to saturate the human FAP receptors expressed on cancer cells, to assess non-specific binding.

Experiment [5] shares this target. Briefly: saturation binding of 225Ac-DOTA-labelled untagged VHH B1 on human FAP-expressing GM05389 cells.
The target is the same in experiment [6]. Briefly: saturation binding of 177Lu-DTPA-labelled untagged VHH B1 on human FAP-expressing HEK-293 cells. How it is done: (§2) In a first part, its in vitro behaviour was assessed by means of investigating its cellular binding and retention overtime. The binding potential of the resulting radioconjugates was assessed to confirm that this was not affected by the introduction of ¹⁷⁷Lu-DTPA into the amino acid sequence of the VHH. To this, human FAP-expressing GM05389 and HEK-293 cells were incubated with serial dilutions with concentrations ranging from 0 to 33 nM of ¹⁷⁷Lu-labeled untagged VHH B1. A 100-fold excess of the corresponding unlabeled VHH was added in parallel to saturate the human FAP receptors expressed on cancer cells, to assess non-specific binding.

The target is the same in experiment [7]. Briefly: saturation binding of 177Lu-DTPA-labelled untagged VHH B1 on human FAP-expressing GM05389 cells. How it is done:
as §2

Experiment [8] deals with T2, murine FAP recombinant protein. Briefly: bio-layer interferometry (Octet RED96), biotinylated murine FAP on streptavidin sensor. On the procedure: (§3) The kinetic parameters of antigen binding by purified VHHs were determined via bio-layer interferometry with an Octet RED96 instrument (ForteBio). The assay was performed at 25° C. with shaking at 1000 rpm. Streptavidin coated SA sensors were equilibrated in assay buffer (HBS supplemented with 0.5% BSA, 0.1% Tween), before loading for 5 min with the biotinylated FAP recombinant protein at a concentration of 5 μg/ml. His₆-tagged VHHs were analyzed in a threefold serial dilution from 30 nM to 0.4 nM in assay buffer (except for VHH B3 binding murine FAP recombinant protein, for which a fivefold serial dilution from 1000 nM to 1.6 nM was employed). First the baseline was measured for 180 s in assay buffer, followed by 5 subsequent association phases of 180 s with the VHH preparations in increasing order of concentration, with 75 s intermediate dissociation phases in assay buffer in between, and a final dissociation phase in assay buffer of 30 min. In every assay a reference sensor loaded with FAP recombinant protein was included that was incubated in assay buffer during the association phases.
Binding curves were exported and analyzed using the BIAevaluation analysis software (GE Healthcare). First the y-axes of the different curves were aligned to the median of the last 5 s of the baseline measurement. […]

The target in experiment [9] is T3, human FAP recombinant protein. In words: bio-layer interferometry (Octet RED96), biotinylated human FAP on streptavidin sensor, kinetic titration, 25 °C. How it is done:
as §3
Binding curves were exported and analyzed using the BIAevaluation analysis software (GE Healthcare). First the y-axes of the different curves were aligned to the median of the last 5 s of the baseline measurement. Subsequently, the sensorgram of the reference sensor was subtracted from all other sensorgrams. The resulting binding curve was fitted using a general fit with the ‘kinetic titration with drift’ binding model (1:1 (antigen:analyte) model; Karlsson, R. et al (2006), Analyzing a kinetic titration series using affinity biosensors. Analytical Biochemistry 349: 136-147), with Rmax fitted global, RI local and drift set to 0.
Table 7 gives an overview of the kinetic parameters of antigen binding for His₆-tagged VHHs B1, B2, B3 and B4 (SEQ ID NO: 21-24), as determined by bio-layer interferometry with biotinylated human or murine FAP recombinant protein that was loaded on the sensor.

B1: HA-His6-tagged VHH B4 (VHH)
VHH: QVQLQESGGGLVQVGGSLRLSCVASGFTFSSYYMSWVRQAPGKGLEWVASIYADGDMTYYADSVRGRFTISRDNAKNTLYLQMNSLKSEDTAVYYCAKDPLPPYHVNQGTQVTVSS
notes: also called B4 with HA-His6-tag
As to B1, the binding result in experiment [1] and in experiment [3] was “no binding” in each case. The signal-to-background ratio in [2] was > 30.

B2: 111In-labeled untagged VHH B1 (VHH)
VHH: DVQLVESGGGLVQPGGSLRLSCVASGRLSSSNSMAWYRQVPGKRRELVAGITGGGETNYADFVGGRFTISRDNAKNGLYLQLNGLKPEDTAAYYCNFWPPLINYWGQGTQVTVSS
modifications: 111In-DOTA (p-SCN-Bn-DOTA) conjugated to lysine side-chain amines
In general, EC50 refers to the concentration at which the effect is half-maximal. B2 displayed an EC50 in experiment [4] of 0.6 nM.

B3: 225Ac-labeled untagged VHH B1 (VHH)
VHH: B2 VHH
modifications: 225Ac-DOTA (p-SCN-Bn-DOTA) conjugated to lysine side-chain amines
notes: also called 225Ac-DOTA-VHH
As for B3, the half-maximal effective concentration (EC50) in [5] was found to be 0.4 nM.

B4: 177Lu-labeled untagged VHH B1 (VHH)
VHH: B2 VHH
modifications: 177Lu-DTPA (p-SCN-Bn-CHX-A''-DTPA) conjugated to lysine side-chain amines
notes: also called 177Lu-B1; 177Lu-DTPA-VHH
Regarding B4, the 50% effective concentration (EC50) worked out at 0.8 nM in [6] and 0.5 nM in experiment [7].

B5: His6-tagged VHH B3 (VHH)
VHH: DVQLVESGGGLVQAGGSLRLSCAVSGRLFSTNAMGWYRQAPGKQRELVAGITGGDRSNYADSVKGRFTISRDNGKNTLYLQMNSLKPEDTAVYYCNFYPPIVGDYWGQGTQVTVSS
notes: Purified, unlabelled; used in bio-layer interferometry; also called B3 with His6-tag
The Kd is the constant that tells how readily two partners part at equilibrium. As a reminder, the koff is a measure of how fast the partners let go of each other. Broadly, the kon is the second-order rate constant of association. On to B5, for which, in [8], the binding result is given as “no binding”. In addition, in [9], the Kd is 0.16 nM, the koff worked out at 5.4e-05 s⁻¹ and the kon stood at 340000 M⁻¹ s⁻¹.
